For the assay, the target named is Recombinant human G-CSFR (granulocyte-colony-stimulating factor receptor) (human) (UniProt Q99062).
Sequence of UniProt Q99062 (Q99062 25-333): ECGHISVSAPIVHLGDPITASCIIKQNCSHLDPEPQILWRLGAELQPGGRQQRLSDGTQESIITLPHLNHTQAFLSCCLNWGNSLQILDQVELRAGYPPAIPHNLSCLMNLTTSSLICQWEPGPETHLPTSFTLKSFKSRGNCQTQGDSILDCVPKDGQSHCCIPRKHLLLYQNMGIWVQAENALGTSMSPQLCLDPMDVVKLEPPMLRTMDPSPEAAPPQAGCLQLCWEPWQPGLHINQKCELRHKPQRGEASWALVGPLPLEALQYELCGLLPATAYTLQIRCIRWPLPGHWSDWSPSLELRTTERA

On to “Recombinant human granulocyte colony-stimulating factor (rhG-CSF) (from UniProt P09919 31-207) (ligand)”, for which the EC50 (pM) of proliferation of murine NFS-60 cells (48 h, CellTiter-Blue; receptor of the cells); rhG-CSF self-made from E. coli was determined as 2.6 pM.

The values are drawn from paper PMC12628175.
